The results in this text go back to US20130046081A1 (SHANGHAI BIOMABS PHARMACEUTICALS, published 2013).

For the assay, the target named is T1, Recombinant Human VEGF165 Protein (human, UniProt P15692-4 27-191).
T1 construct: Bought protein (R&D)
As to the kind of experiment: SPR (Biacore T100), VEGF165 amine-coupled to the chip, antibody in solution. How it is done:
Affinity constant of VEGF antibody was detected using Biacore T100 system (Biacore AB, Uppsala, Sweden). VEGF165 (R&D) was covalently linked to CMS biological sensor chips (Biacore) by amino-coupling. […] After each examination, they were washed with 5 μl of 50 mM hydrochloric acid aqueous solution at a flow rate of 3 μl/min so as to wash away the residual antibodies from the immobilized ligands. The binding curves were subjected to nonlinear regression analysis using BIAevalution software (T100 evalution version 2.0, Biacore).
In general terms: SPR reads the build-up and loss of mass on a sensor chip optically.

T1 sequence (P15692 other isoform, or with tags, fused parts or gaps limits assumed): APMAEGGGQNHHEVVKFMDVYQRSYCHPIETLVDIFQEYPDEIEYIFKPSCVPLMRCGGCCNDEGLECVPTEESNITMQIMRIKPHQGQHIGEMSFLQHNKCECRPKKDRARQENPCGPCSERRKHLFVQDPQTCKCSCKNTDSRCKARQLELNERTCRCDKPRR

B1: fully human anti-VEGF antibody 11A7 (antibody, human IgG1, kappa, V domains shown)
VH: QVQLVQSGAEVKKPGASVKVSCKASGYTFTSYDINWVRQATGQGLEWMGWMNPNSGNTGYAQKFQGRVTMTRNTSISTAYMELSSLRSEDTAVYYCARGGYSSSWYYWYFDLWGRGTLVTVSS
VL: DIQMTQSPSSLSASVGDRVTITCRASQGIRNDLGWYQQKPGKAPKRLIYAASSLQSGVPSRFSGSGSGTEFTLTISSLQPEDFATYYCLQHNSYPPVYTFGQGTKLEIKR
notes: The genes carried a signal peptide at the 5' end; also called fully human antibody 11A7
The term Kd denotes the constant that tells how readily two partners part at equilibrium. One may read the koff as the rate constant with which the complex falls apart. The kon is the second-order rate constant of association. As to B1, the dissociation constant Kd amounted to 0.86 nM, the koff turned out to be 7.1e-05 s⁻¹ and the kon was found to be 82400 M⁻¹ s⁻¹.
